Consider one molecule from article PMC6477179 (2019).

The target in this experiment is GST-p62 FIR (aa 326-380) (human, UniProt Q13501 326-380). As to the kind of experiment: SPR. A general note: Surface plasmon resonance follows binding to a sensor surface in real time, without labels.

B1: FIP200 CTR (aa 1458-1594) (domain or fragment)
chain: RIMLLERTLQLKEEENKRLNQRLMSQSMSSVSSRHSEKIAIRDFQVGDLVLIILDERHDNYVLFTVSPTLYFLHSESLPALDLKPGEGASGASRRPWVLGKVMEKEYCQAKKAQNRFKVPLGTKFYRVKAVSWNKKV
For B1, the Kd – broadly, the equilibrium constant for the complex coming apart – turned out to be 5.1 µM.
